The target of the data set is T1, BUD13-2xFLAG (UniProt Q9BRD0 1-619).
T1 sequence: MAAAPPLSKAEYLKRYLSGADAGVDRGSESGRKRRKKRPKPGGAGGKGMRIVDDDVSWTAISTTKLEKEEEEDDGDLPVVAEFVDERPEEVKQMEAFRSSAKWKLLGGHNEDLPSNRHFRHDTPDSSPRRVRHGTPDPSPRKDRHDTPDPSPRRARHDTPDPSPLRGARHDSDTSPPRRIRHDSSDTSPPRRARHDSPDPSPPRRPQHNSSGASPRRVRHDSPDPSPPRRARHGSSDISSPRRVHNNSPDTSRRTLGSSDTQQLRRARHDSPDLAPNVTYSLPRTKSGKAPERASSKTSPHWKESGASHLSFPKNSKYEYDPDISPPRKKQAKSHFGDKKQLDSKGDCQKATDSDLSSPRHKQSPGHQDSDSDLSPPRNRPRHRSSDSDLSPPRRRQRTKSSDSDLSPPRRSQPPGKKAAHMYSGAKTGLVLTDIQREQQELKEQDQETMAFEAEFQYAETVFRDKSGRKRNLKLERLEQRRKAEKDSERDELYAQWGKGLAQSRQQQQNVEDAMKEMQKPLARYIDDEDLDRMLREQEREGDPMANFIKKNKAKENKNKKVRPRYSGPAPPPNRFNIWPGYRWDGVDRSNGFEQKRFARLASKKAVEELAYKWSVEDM
In words: EMSA. For orientation: In EMSA bound probe runs differently from free probe, usually more slowly.

For the molecule UAAAGUGCUUAUAGUGCAGGUAGUGU (ssRNA) [EMSA miR-20a locus RNA oligo], the binding result is “no binding”.
